In patent US20230203125A1:

Biological target: CD47 (UniProt Q08722)
Test: cell-based or functional assay

UniProt Q08722, sequence (Q08722 19-323 limits assumed): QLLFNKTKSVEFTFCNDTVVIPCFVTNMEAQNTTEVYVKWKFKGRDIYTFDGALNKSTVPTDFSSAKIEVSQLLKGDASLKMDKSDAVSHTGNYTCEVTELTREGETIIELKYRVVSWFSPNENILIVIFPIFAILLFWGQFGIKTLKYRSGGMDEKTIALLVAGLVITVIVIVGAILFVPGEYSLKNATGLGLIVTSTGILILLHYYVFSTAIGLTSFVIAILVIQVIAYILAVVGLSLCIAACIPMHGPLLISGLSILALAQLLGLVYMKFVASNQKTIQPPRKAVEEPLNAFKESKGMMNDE

SIRPγ fusion protein SIRPγ-CD28TM-CD28 (receptor)
Specific Lysis (%) of target cells DLD1-CEA, 24 h, effector-target ratio 1:1: 45.2%
